From paper PMC10531356, “Hardening of Respiratory Syncytial Virus Inclusion Bodies by Cyclopamine Proceeds through Perturbation of the Interactions of the M2-1 Protein with RNA and the P Protein” (International Journal of Molecular Sciences, 2023) come the findings set out here.

Where no end group is shown, it is not given here. The star is where a group is joined. FITC = O=C1OC2(c3ccc(O)cc3Oc3cc(O)ccc32)c2ccc(NC(=S)*)cc21

Assay [1] deals with M2-1-mCherry fusion protein (wild type) (human respiratory syncytial virus (hRSV), strain Long). Description: SEC; Hi-Load 16/600 Superdex 200, 20 mM Tris-HCl pH 7.4, 150 mM NaCl, after GST cleavage. For orientation: SEC sorts molecules by how far they enter the pores of the column.
Assay [2] deals with M2-1(R151K)-mCherry mutant (human respiratory syncytial virus (hRSV), strain Long). Described as above.
Assay [3] addresses T1, M2-1 core domain (wild type) (human respiratory syncytial virus …, UniProt P04545 58-177, 15N-labelled for NMR).
T1 construct: C-terminal globular core domain of M2-1 of hRSV strain Long, from pGEX-M2-1core; UniProt entry of strain Long not known to me; also called 15N-M2-1core; WT M2-1core
T1 sequence: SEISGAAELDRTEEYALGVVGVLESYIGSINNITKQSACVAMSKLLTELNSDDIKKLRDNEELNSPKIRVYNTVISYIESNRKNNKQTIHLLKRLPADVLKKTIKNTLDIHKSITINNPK
Description: MST; FITC-P95-112 fixed at 100 nM, M2-1core 0 to 33.5 µM, PBS with 1% DMSO and 0, 1 or 10 µM CPM, 20 °C, Monolith NT.115. As to conditions: both partners purified.

As a reminder, the stoichiometry N is a count of units in the complex or per binding partner. For “M2-1-mCherry fusion protein (wild type) (natural protein)”, the stoichiometry N in assay [1] amounted to 4.

With “M2-1(R151K)-mCherry mutant (natural protein)”, the stoichiometry N in assay [2] came out at 4.

B1: FITC-P(95-112) peptide (peptide)
peptide: {FITC}-DNPFSKLYKETIETFDNN
notes: also called synthetic FITC-P peptide; P peptide; source: synthetic peptide, bought: Proteogenix
Broadly, the Kd is the equilibrium constant for the complex coming apart. A low value points to tighter binding. On to B1, for which the Kd in assay [3] was ~20 µM.
